Test results: the Human Domainome abundance scans (Beltran et al. 2025)
± gives the uncertainty stated by the source.

Experiment: abundance fitness (aPCA) (normalised: wild type 0, dead -1); higher = more abundant; growth selection in yeast, the domain comes from the species named
Details: Homo sapiens

Substance	abundance fitness
SAFB-like transcription modulator K53Y, Q9NWH9	-0.517 ± 0.18
SAFB-like transcription modulator L25A, Q9NWH9	-0.385 ± 0.032
SAFB-like transcription modulator L25D, Q9NWH9	-0.665 ± 0.054
SAFB-like transcription modulator L25E, Q9NWH9	-0.308 ± 0.1
SAFB-like transcription modulator L25F, Q9NWH9	-0.312 ± 0.061
SAFB-like transcription modulator L25G, Q9NWH9	-0.715 ± 0.071
SAFB-like transcription modulator L25H, Q9NWH9	-0.732 ± 0.16
SAFB-like transcription modulator L25I, Q9NWH9	-0.467 ± 0.11
SAFB-like transcription modulator L25K, Q9NWH9	-0.407 ± 0.11
SAFB-like transcription modulator L25M, Q9NWH9	-0.768 ± 0.045
SAFB-like transcription modulator L25N, Q9NWH9	-0.172 ± 0.18
SAFB-like transcription modulator L25P, Q9NWH9	-0.718 ± 0.071
SAFB-like transcription modulator L25Q, Q9NWH9	-0.181 ± 0.31
SAFB-like transcription modulator L25R, Q9NWH9	-0.663 ± 0.05
SAFB-like transcription modulator L25S, Q9NWH9	-0.745 ± 0.077
SAFB-like transcription modulator L25T, Q9NWH9	-0.536 ± 0.063
SAFB-like transcription modulator L25V, Q9NWH9	-0.748 ± 0.061
SAFB-like transcription modulator L25W, Q9NWH9	-0.219 ± 0.055
SAFB-like transcription modulator L30A, Q9NWH9	-0.581 ± 0.035
SAFB-like transcription modulator L30C, Q9NWH9	-0.497 ± 0.083
SAFB-like transcription modulator L30D, Q9NWH9	-0.65 ± 0.083
SAFB-like transcription modulator L30E, Q9NWH9	-0.6 ± 0.05
SAFB-like transcription modulator L30F, Q9NWH9	-0.706 ± 0.055
SAFB-like transcription modulator L30H, Q9NWH9	-0.902 ± 0.17
SAFB-like transcription modulator L30I, Q9NWH9	-0.129 ± 0.067
SAFB-like transcription modulator L30K, Q9NWH9	-1.33 ± 0.27

Substance	abundance fitness
SAFB-like transcription modulator L30N, Q9NWH9	-0.267 ± 0.19
SAFB-like transcription modulator L30P, Q9NWH9	-0.716 ± 0.067
SAFB-like transcription modulator L30Q, Q9NWH9	-0.959 ± 0.17
SAFB-like transcription modulator L30R, Q9NWH9	-0.949 ± 0.056
SAFB-like transcription modulator L30S, Q9NWH9	-0.776 ± 0.058
SAFB-like transcription modulator L30T, Q9NWH9	-0.936 ± 0.11
SAFB-like transcription modulator L30V, Q9NWH9	-0.295 ± 0.05
SAFB-like transcription modulator L30W, Q9NWH9	-0.748 ± 0.098
SAFB-like transcription modulator L30Y, Q9NWH9	-1 ± 0.13
SAFB-like transcription modulator L34A, Q9NWH9	-0.767 ± 0.092
SAFB-like transcription modulator L34C, Q9NWH9	-0.496 ± 0.1
SAFB-like transcription modulator L34D, Q9NWH9	-0.414 ± 0.12
SAFB-like transcription modulator L34E, Q9NWH9	-0.594 ± 0.087
SAFB-like transcription modulator L34F, Q9NWH9	-0.945 ± 0.2
SAFB-like transcription modulator L34G, Q9NWH9	-0.829 ± 0.043
SAFB-like transcription modulator L34H, Q9NWH9	-0.465 ± 0.38
SAFB-like transcription modulator L34I, Q9NWH9	-1 ± 0.31
SAFB-like transcription modulator L34K, Q9NWH9	-0.864 ± 0.078
SAFB-like transcription modulator L34M, Q9NWH9	-0.678 ± 0.1
SAFB-like transcription modulator L34N, Q9NWH9	-0.964 ± 0.45
SAFB-like transcription modulator L34P, Q9NWH9	-0.8 ± 0.084
SAFB-like transcription modulator L34Q, Q9NWH9	-0.673 ± 0.057
SAFB-like transcription modulator L34R, Q9NWH9	-0.969 ± 0.069
SAFB-like transcription modulator L34S, Q9NWH9	-0.778 ± 0.038
SAFB-like transcription modulator L34T, Q9NWH9	-0.831 ± 0.067
SAFB-like transcription modulator L34V, Q9NWH9	-0.614 ± 0.068

Substance	abundance fitness
SAFB-like transcription modulator L34W, Q9NWH9	-1.01 ± 0.057
SAFB-like transcription modulator L39A, Q9NWH9	-0.498 ± 0.069
SAFB-like transcription modulator L39C, Q9NWH9	-0.446 ± 0.079
SAFB-like transcription modulator L39D, Q9NWH9	-0.755 ± 0.075
SAFB-like transcription modulator L39E, Q9NWH9	-0.365 ± 0.054
SAFB-like transcription modulator L39F, Q9NWH9	-0.409 ± 0.077
SAFB-like transcription modulator L39G, Q9NWH9	-0.475 ± 0.045
SAFB-like transcription modulator L39H, Q9NWH9	-0.275 ± 0.081
SAFB-like transcription modulator L39I, Q9NWH9	-0.231 ± 0.074
SAFB-like transcription modulator L39K, Q9NWH9	-0.179 ± 0.046
SAFB-like transcription modulator L39M, Q9NWH9	0.017 ± 0.047
SAFB-like transcription modulator L39N, Q9NWH9	-0.596 ± 0.12
SAFB-like transcription modulator L39P, Q9NWH9	-0.81 ± 0.067
SAFB-like transcription modulator L39Q, Q9NWH9	-0.499 ± 0.11
SAFB-like transcription modulator L39R, Q9NWH9	-0.296 ± 0.05
SAFB-like transcription modulator L39T, Q9NWH9	-0.631 ± 0.043
SAFB-like transcription modulator L39V, Q9NWH9	-0.356 ± 0.059
SAFB-like transcription modulator L39W, Q9NWH9	-0.591 ± 0.084
SAFB-like transcription modulator L39Y, Q9NWH9	-0.305 ± 0.038
SAFB-like transcription modulator L48A, Q9NWH9	-0.432 ± 0.053
SAFB-like transcription modulator L48C, Q9NWH9	-0.51 ± 0.042
SAFB-like transcription modulator L48D, Q9NWH9	-0.274 ± 0.071
SAFB-like transcription modulator L48E, Q9NWH9	-0.478 ± 0.086
SAFB-like transcription modulator L48F, Q9NWH9	-0.886 ± 0.062
SAFB-like transcription modulator L48G, Q9NWH9	-0.472 ± 0.054
SAFB-like transcription modulator L48H, Q9NWH9	-0.52 ± 0.059

Substance	abundance fitness
SAFB-like transcription modulator L48I, Q9NWH9	-0.513 ± 0.063
SAFB-like transcription modulator L48K, Q9NWH9	-0.371 ± 0.055
SAFB-like transcription modulator L48M, Q9NWH9	-0.075 ± 0.04
SAFB-like transcription modulator L48N, Q9NWH9	-0.489 ± 0.043
SAFB-like transcription modulator L48P, Q9NWH9	-0.489 ± 0.048
SAFB-like transcription modulator L48R, Q9NWH9	-0.537 ± 0.043
SAFB-like transcription modulator L48S, Q9NWH9	-0.585 ± 0.039
SAFB-like transcription modulator L48T, Q9NWH9	-0.538 ± 0.043
SAFB-like transcription modulator L48V, Q9NWH9	-0.607 ± 0.054
SAFB-like transcription modulator L48W, Q9NWH9	-0.613 ± 0.04
SAFB-like transcription modulator L48Y, Q9NWH9	-0.788 ± 0.043
SAFB-like transcription modulator L52A, Q9NWH9	-0.702 ± 0.04
SAFB-like transcription modulator L52C, Q9NWH9	-0.827 ± 0.12
SAFB-like transcription modulator L52D, Q9NWH9	-0.497 ± 0.05
SAFB-like transcription modulator L52E, Q9NWH9	-0.456 ± 0.15
SAFB-like transcription modulator L52F, Q9NWH9	-0.568 ± 0.12
SAFB-like transcription modulator L52G, Q9NWH9	-0.611 ± 0.048
SAFB-like transcription modulator L52M, Q9NWH9	-0.456 ± 0.1
SAFB-like transcription modulator L52N, Q9NWH9	-0.385 ± 0.23
SAFB-like transcription modulator L52P, Q9NWH9	-0.467 ± 0.12
SAFB-like transcription modulator L52Q, Q9NWH9	-0.927 ± 0.45
SAFB-like transcription modulator L52R, Q9NWH9	-0.808 ± 0.057
SAFB-like transcription modulator L52S, Q9NWH9	-0.563 ± 0.087
SAFB-like transcription modulator L52T, Q9NWH9	-0.642 ± 0.16
SAFB-like transcription modulator L52V, Q9NWH9	-0.412 ± 0.077
